The nature of data set [1]: Aggregation by analytical size exclusion chromatography (Example 9). The data set is classed as physicochemical. On the procedure:
The stability of SG-11 (SEQ ID NO:9) was evaluated following the incubation at 37° C. for one week and at 4° C. for 3 weeks in Buffer C (100 mM sodium phosphate, pH 7.0, 0.5 M sorbitol). The stability was assessed by monitoring the aggregation formation with analytical size exclusion chromatography (SEC) equilibrated with Buffer D (100 mM sodium phosphate, pH 7.0, 10% glycerol). […] The cause of the aggregation was investigated as follows. There are two cysteine residues found in SG-11 at the positions 147 and 151 (relative to SEQ ID NO:7). […] As free sulfhydryl groups could cause aggregation by forming unpreferable intermolecular disulfide bonds, it was examined whether the presence of reducing agent, such as β-mercaptoethanol, could prevent the aggregation.

A further data set relates to trypsin. In words: Incubation with immobilized trypsin, SDS-PAGE (Example 14). The data set is classed as in vitro ADME. The conditions noted are these: room temperature, 10 min to 2 hr, PBS pH 7.4, FIG. 25. On the procedure:
An experiment was performed to assess generation of the fragment upon incubation in the presence of trypsin. Columns were prepared to contain 100 μl immobilized Trypsin slurry, washed twice with PBS, loaded with SG-11 (SEQ ID NO:9) diluted in PBS, pH 7.4, then incubated at room temperature for varied times. To stop the reaction, each column was centrifuged to remove protein from the column, then analyzed on an SDS-PAGE gel using Coomassie Blue visualization.

Data set [2] is described as follows: Stability in fecal slurry, SDS-PAGE and Coomassie blue (Example 14). The conditions noted are these: 37° C., 10 min, 30 min, 1 hr, 2 hr; human fecal pellets in PBS; FIG. 24.
A short description of data set [3]: Forced degradation under stress conditions (SEC-HPLC, LC/MS/MS) (Example 8). In kind it is physicochemical. Particulars: for Aggregates (SEC-HPLC): 2 weeks. On the procedure: SG-11 (SEQ ID NO:9) was also tested under a series of stress conditions shown in Table 8 below to further characterized the stability of recombinant, purified SG-11. Stressed samples were analyzed either by SEC-HPLC for the presence of aggregates and/or degradants. LC/MS/MS was performed for determination of levels of deamidation and oxidation.
For this analysis, SG-11 (SEQ ID NO:9) was present at a concentration of 1 mg/ml in PBS (50 mM sodium phosphate, 150 mM NaCl, 10% glycerol, pH 8.0), with the exception of tests under pH 4 and pH 9. For pH 4, SG-11 (SEQ ID NO:9) was prepared at a concentration of 1 mg/ml in sodium acetate buffer (50 mM sodium acetate, 150 mM NaCl, pH 4). For pH 9, SG-11 (SEQ ID NO:9) was prepared at a concentration of 1 mg/ml in CAPSO (3-cyclohexylamino-2-hydroxy-1-propanesulfonic acid) buffer (50 mM CAPSO, 150 mM NaCl, pH 9).
Three samples treated by incubation at 40° C. for two weeks, oxidation (H2O2) or high pH 9, respectively, were analyzed by LC/MS/MS for PTMs. […] 7.84% of N53 was deamidated without any treatment.
After reduction, free cysteines were artificially carbamidomethylated by iodoacetamide to block cysteine residues from oxidation in the assays.
(In gel filtration, larger molecules generally elute earlier.)

B1: SG-11 (SEQ ID NO:9): SG-11 (SEQ ID NO:3) with a FLAG-tag (DYKDDDDK) at the N-terminus (protein)
chain: MDYKDDDDKGSSHMLEGEESVVYVGKKGVIASLDVETLDQSYYDETELKSYVDAEVEDYTAEHGKNAVKVESLKVEDGVAKLKMKYKTPEDYTAFNGIELYQGKVVASLAAGYVYDGEFARVEEGKVVGAATKQDIYSEDDLKVAIIRANTDVKVDGEICYVSCQNVKLTGKDSVSIRDGYYLETGSVTASVDVTGQESVGTEQLSGTEQMEMTGEPVNADDTEQTEAAAGDGSFETDVYTFIVYK
modifications: N-terminal FLAG tag
As for B1, the “Aggregation formation (analytical SEC)” value in data set [1] (4-days incubation at 37° C. in presence of 2.5% (v/v) mercaptoethanol, 50 mM sodium phosphate, 150 mM NaCl, 10% glycerol) is “Aggregation was greatly suppressed”; in data set [1] (4° C. for 3 weeks in Buffer C (100 mM sodium phosphate, pH 7.0, 0.5 M sorbitol), vs freshly thawed protein) it was “No noticeable change”; in data set [1] (37° C. for one week in Buffer C (100 mM sodium phosphate, pH 7.0, 0.5 M sorbitol)) it was “clearly showed aggregation peaks”. Moreover, in the data set on trypsin, the “Product on incubation with trypsin (SDS-PAGE)” value is recorded as “a predominant band is generated in the presence of trypsin”. Further, in data set [2], the “Stability in fecal slurry (SDS-PAGE)” value was “generation of a predominant band with an apparent molecular weight of about 25 kDa”. Also, the “Aggregates (SEC-HPLC)” value in data set [3] (4° C.) was “low level of aggregates”; in data set [3] (37° C.), “major aggregation occurred”. Besides, the “Aggregation or degradation (SEC-HPLC)” value in data set [3] (mechanical stress) is given as “do not cause either protein aggregation or degradation”; in data set [3] (repeated freeze and thaw) it was “do not cause either protein aggregation or degradation”.
